Assay results from patent EP4667489A1 (Kyinno Biotechnology Co., Ltd., dated 2025).
Residue numbers refer to the chain shown, from its start. Where two headings read alike, the source gives them in different places. Each block holds one binder with its values, some of them ahead of it.

Experiments:
[1] = target: T1, human PDL1 expressed on 293T-PDL1 cells (human, UniProt Q9NZQ7 19-290); assay: cell-based or functional assay
[2] = target: T1, human PDL1 expressed on 293T-PDL1 cells; assay: flow cytometry on 293T-PDL1 cells
[3] = target: T2, PDL1-mFc (fusion protein of the human PDL1 extracellular domain and mouse Fc; Kyinno, Cat No.: KP-1008) (human; mouse, UniProt Q9NZQ7 19-238); assay: flow cytometry, blocking of PDL1-mFc binding to 293T-PD1 cells
T2 construct: extracellular domain; bought; also called human PDL1-mFc; not shown: mouse Fc
T2 sequence (Q9NZQ7 19-238): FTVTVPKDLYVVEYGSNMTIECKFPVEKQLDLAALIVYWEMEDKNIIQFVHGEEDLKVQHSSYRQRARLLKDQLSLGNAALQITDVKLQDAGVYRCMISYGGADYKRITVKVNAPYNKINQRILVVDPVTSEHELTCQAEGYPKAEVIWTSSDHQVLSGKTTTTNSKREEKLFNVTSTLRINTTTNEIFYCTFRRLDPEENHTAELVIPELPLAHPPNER

[4] = target: T3, human EGFR expressed on CT26-EGFR cells (human, UniProt P00533 25-1210); assay: cell-based or functional assay
[5] = target: T3, human EGFR expressed on CT26-EGFR cells; assay: flow cytometry on CT26-EGFR cells
[6] = target: T4, EGFR-mFc (fusion protein of the human EGFR extracellular domain and mouse Fc; Kyinno, Cat No.: KP-1148) (human; mouse, UniProt P00533 25-645); assay: ELISA, blocking of EGFR-mFc binding to coated EGF-His
T4 construct: extracellular domain; bought; also called EGFR-Fc; not shown: mouse Fc

[7] = target: T1, human PDL1 expressed on 293T-PDL1 cells; assay: flow cytometry on 293T-PDL1 cells; remark: listed apart in the source
[8] = target: T1, human PDL1 expressed on 293T-PDL1 cells; assay: cell-based or functional assay; remark: listed apart in the source
[9] = target: T5, PDL1-His (Kyinno, Cat No.: KP-1022) (UniProt Q9NZQ7 19-238, limits assumed); assay: BLI (ForteBio Octet), PDL1-His as mobile phase
T5 construct: not shown: His tag
T5 sequence (Q9NZQ7 19-238 limits assumed): as the sequence (Q9NZQ7 19-238) above

[10] = target: T6, PDL1-hFc (Kyinno, Cat No.: KP-1009) (human, UniProt Q9NZQ7 19-238, limits assumed); assay: flow cytometry, blocking of PDL1 Fc fusion (taken as PDL1-hFc) binding to 293T-PD1 cells
T6 construct: bought; not shown: human Fc (hFc)
T6 sequence (Q9NZQ7 19-238 limits assumed): as the sequence (Q9NZQ7 19-238) above

[11] = target: T7, EGFR-His (Kyinno, Cat No.: KP-1150) (UniProt P00533 25-645, limits assumed); assay: BLI (ForteBio Octet), EGFR-His as mobile phase
T7 construct: bought; not shown: His tag

[12] = target: T3, human EGFR expressed on CT26-EGFR cells; assay: cell-based or functional assay; remark: listed apart in the source
[13] = target: T8, EGFR-hFc (Kyinno, Cat No.: KP-1149) (UniProt P00533 25-645, limits assumed); assay: ELISA, blocking of EGFR Fc fusion (taken as EGFR-hFc) binding to coated EGF-His
T8 construct: bought; also called EGFR-Fc; not shown: human Fc (hFc)

[14] = target: T3, human EGFR expressed on CT26-EGFR cells; assay: flow cytometry on CT26-EGFR cells; remark: listed apart in the source
[15] = target: T9, human LAG3 expressed on 293T-LAG3 cells (human, UniProt P18627 23-525); assay: flow cytometry on 293T-LAG3 cells
T9 construct: whole, on cells; 293T cells stably expressing human LAG3 (Kyinno KC-0214); also called LAG3-expressing cells
T9 sequence (looked up): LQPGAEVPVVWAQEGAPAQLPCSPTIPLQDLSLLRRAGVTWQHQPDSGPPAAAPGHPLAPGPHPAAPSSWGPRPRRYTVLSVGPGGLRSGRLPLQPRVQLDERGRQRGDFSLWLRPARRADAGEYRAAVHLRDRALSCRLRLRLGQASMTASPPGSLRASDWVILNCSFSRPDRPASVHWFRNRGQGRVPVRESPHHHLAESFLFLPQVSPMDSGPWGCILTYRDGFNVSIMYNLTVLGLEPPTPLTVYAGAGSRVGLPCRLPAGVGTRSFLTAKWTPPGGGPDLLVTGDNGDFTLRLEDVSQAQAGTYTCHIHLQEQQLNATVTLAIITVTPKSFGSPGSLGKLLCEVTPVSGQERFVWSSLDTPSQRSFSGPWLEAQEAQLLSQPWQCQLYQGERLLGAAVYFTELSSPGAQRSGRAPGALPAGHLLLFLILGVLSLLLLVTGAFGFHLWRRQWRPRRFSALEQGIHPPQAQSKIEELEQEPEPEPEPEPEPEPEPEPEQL

[16] = target: T10, LAG3-hFc (fusion protein of the human LAG3 extracellular domain and human IgG1-Fc) (human, UniProt P18627 23-450); assay: flow cytometry, blocking of LAG3-hFc binding to Daudi cells
T10 construct: extracellular domain; not shown: human IgG1-Fc, Genbank CAC20454.1
T10 sequence (looked up): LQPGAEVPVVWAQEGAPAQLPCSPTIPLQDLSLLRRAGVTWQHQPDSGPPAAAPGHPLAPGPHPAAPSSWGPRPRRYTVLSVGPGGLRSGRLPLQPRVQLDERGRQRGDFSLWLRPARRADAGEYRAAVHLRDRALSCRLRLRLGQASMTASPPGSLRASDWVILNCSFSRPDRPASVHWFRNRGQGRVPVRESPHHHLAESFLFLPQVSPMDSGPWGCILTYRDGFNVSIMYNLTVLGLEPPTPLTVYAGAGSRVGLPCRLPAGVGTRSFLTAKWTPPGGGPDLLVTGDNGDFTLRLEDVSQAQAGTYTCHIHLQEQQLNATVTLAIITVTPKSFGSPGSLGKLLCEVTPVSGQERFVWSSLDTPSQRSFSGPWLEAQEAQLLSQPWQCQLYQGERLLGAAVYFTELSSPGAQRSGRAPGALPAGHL

[17] = target: T11, PD1-hFc (fusion protein of the human PD1 extracellular domain and human IgG1-Fc) (human, UniProt Q15116 25-170); assay: flow cytometry, blocking of PD1-hFc binding to 293T-PDL1 cells
T11 construct: extracellular domain; also called human PD1-hFc; not shown: human IgG1-Fc, Genbank CAC20454.1
T11 sequence (Q15116 25-170): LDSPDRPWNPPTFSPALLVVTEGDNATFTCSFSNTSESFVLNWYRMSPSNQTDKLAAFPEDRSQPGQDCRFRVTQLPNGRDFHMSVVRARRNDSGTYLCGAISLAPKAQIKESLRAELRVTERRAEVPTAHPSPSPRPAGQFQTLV

[18] = target: T12, human PD1 expressed on 293T-PD1 cells (human, UniProt Q15116 25-288); assay: flow cytometry on 293T-PD1 cells
T12 construct: whole, on cells; 293T cells stably expressing human PD1 (Kyinno KC-0204); also called PD1-expressing cells; Jurkat NFAT-PD1-luc cells
T12 sequence (Q15116 25-288): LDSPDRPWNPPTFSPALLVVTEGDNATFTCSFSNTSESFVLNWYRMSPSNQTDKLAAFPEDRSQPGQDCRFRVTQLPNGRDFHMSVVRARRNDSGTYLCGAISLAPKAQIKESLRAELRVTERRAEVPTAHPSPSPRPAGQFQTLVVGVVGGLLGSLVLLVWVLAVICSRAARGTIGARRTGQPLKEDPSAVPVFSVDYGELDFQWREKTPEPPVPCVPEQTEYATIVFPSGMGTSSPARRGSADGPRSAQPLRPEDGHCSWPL

T1 sequence (Q9NZQ7 19-290): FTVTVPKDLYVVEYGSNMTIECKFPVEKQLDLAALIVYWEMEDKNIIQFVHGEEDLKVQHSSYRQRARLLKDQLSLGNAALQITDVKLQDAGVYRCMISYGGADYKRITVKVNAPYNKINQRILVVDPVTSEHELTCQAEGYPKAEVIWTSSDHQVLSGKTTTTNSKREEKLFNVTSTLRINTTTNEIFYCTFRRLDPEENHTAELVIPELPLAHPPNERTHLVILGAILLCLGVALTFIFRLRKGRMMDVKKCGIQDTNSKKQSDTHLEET

B1: KA-2016 H58E3-2V4-2-hIgG1 (antibody, V domains shown)
VH: QVQLVESGGGLVKPGGSLRLSCAASGFTFSDYGIHWIRQAPGKGLEWVAFISSGSSTIYYADAVKGRFTISRDNAKNSLYLQMNSLRAEDTAVYYCTRRDFYGSADAMDYWGQGTTVTVSS
VL: DIQLTQSPSTLSASVGDRVTITCSATSSIGYMHWYQQKPGTSPKRWIYDTSKLASGVPSRFSGSGSGTEYTLTISSLQPDDFATYYCQLWSSDPPYTFGQGTRLEIKR
notes: anti-PDL1 humanized antibody, human IgG1 / kappa
- IC50, luciferase reporter (procedure of Example 25) [1]: 81 pM
- EC50 [2]: 0.0419 µg/mL
- IC50 [3]: 0.0229 µg/mL

B2: KA-1063 H22A12-2V1-hIgG1 (antibody, V domains shown)
VH: QVQLVQSGAEVKKPGASVKVSCKASGYTFTDYYMNWVRQAPGQGLEWIGDINPNDGGTSYNQKFKGRATLTVDKSTSTAYMELSSLRSEDTAVYYCAREILYYVTSFYFDYWGQGTTVTVSS
VL: DIQITQSPSSLSASVGDRVTITCSATSGVSYMHWYQQKPGKAPKRLIYDTSRLASGVPSRFSGSGSGTDYTLTISSLQPEDFATYYCQQWSSNPPYTFGQGTRLEIKR
notes: anti-EGFR humanized antibody, human IgG1 / kappa
- IC50, luciferase reporter (procedure of Example 34) [4]: 389 pM
- EC50 [5]: 0.0382 µg/mL
- IC50 [6]: 0.0357 µg/mL

B4: anti-EGFR murine antibody 22A12-2 (hybridoma cell line KD-22-0198 22A12-2) (antibody, V domains shown)
VH: EVQLQQSGPELVKPGASVKISCKASGYTFTDYYMNWVKQSHGKSLEWIGDINPNDGGTSYNQKFKGKATLTVDKSSSTAYMELRSLTSEDSAVYYCAREILYYVTSFYFDYWGQGTTLTVSS
VL: QIVLTQSPAIMSASPGEKVTMTCSATSGVSYMHWYQQKSGTSPKRWIYDTSRLASGVPARFSGSGSGTSYSLTISSMEAEDAATYYCQQWSSNPPYTFGSGTKLEIK
notes: murine antibody
- Kd [11]: 1150 pM
- koff [11]: 0.00111 s⁻¹
- kon [11]: 965000 M⁻¹ s⁻¹
- IC50, luciferase reporter (293T-NFAT-Luc2-EGFR cells stimulated with EGF-His) [12]: 0.373 µg/mL
- IC50 [13]: 1.58 µg/mL
- EC50 [14]: 0.0242 µg/mL

B5: anti-LAG3 murine antibody 28G2 (hybridoma cell line KD-0019 28G2-7) (antibody, V domains shown)
VH: DVKLQESGPGLVKPSQSLSLTCSVTGYSFTSGYYWNWIRLFPGNKLEWMGYVSYFGTNNYNPSLKNRFSITRDTSKNQFFLKLNSVSTEDTATYYCARGEEWDWSFDVWGTGTTVTVSS
VL: B4 VL with Q1D, I10F, T26S, G28S, R52K, A59T, S92T, S100G
notes: murine antibody tested as hybridoma culture supernatant
- EC50 [15]: 1.08 µg/mL
- IC50 [16]: 1.26 µg/mL

Other lines, results leading:

- EC50 [7]: 0.245 µg/mL
- IC50, luciferase reporter (Jurkat NFAT-PD1-luc + 293T OS8-hPDL1 cells) [8]: 1 µg/mL
- Top (fold increase in activation), luciferase reporter [8]: 3.52
- Kd [9]: 431 pM
- koff [9]: 0.000618 s⁻¹
- kon [9]: 1.43e+06 M⁻¹ s⁻¹
- IC50 [10]: 0.986 µg/mL
B3: anti-PDL1 murine antibody 58E3-2 (hybridoma cell line KD-22-0227 58E3-2) (antibody, V domains shown)
VH: QVQLKESGGGLVKPGGSLKLSCAASGFTFSDYGIHWVRQAPEKGLEWVAFISSGSSTIYYADTVKGRFTISRDNAKNTLFLQMTSLRSEDTAMYYCTRRDFYGSADAMDYWGQGTSVTVSS
VL: B4 VL with T26S, G28S, R52K
notes: murine antibody

- IC50 [17]: 2.26 µg/mL
- EC50 [18]: 0.685 µg/mL
B6: anti-PD1 murine antibody 107D12-10 (hybridoma cell line KD-22-0054 107D12-10) (antibody, V domains shown)
VH: QVQLKESGGGLVKPGGSLKLSCAASGFTFSDYGMHWVRQAPEKGLEWVAYISSGSYTIYYADTVRDRFTISRDSAKNTLFLQMTSLRSEDTAMYYCVRRGPGYFGSTALDYWGQGTTLTVSS
VL: B4 VL
notes: as for B5
